# Data: the supplement of paper PMC11780869
# System: Bacillus subtilis
# Assay: cleaved RNA product abundance (RNA/gDNA barcode ratio) relative to median wild-type variant (ratio to wild type); higher = more accumulation of the downstream cleavage product
# Settings: experiment (reporter, strain, medium): exp 8a: truncated aprE reporter, strain BJT201 with 2% xylose (RNase J1 expressed); cleavage site: glnRA (positions -5 to +31 mutated)
# Procedure, shortened: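 B. subtilis strains with chromosomally integrated reporter mRNAs (truncated aprE or tetM) holding barcoded, mutagenized RNase Y cleavage-site windows grew in LB at 37°C from OD600 0.0003 to 0.3. Cleaved product abundance is each construct's RNA:gDNA barcode ratio, scaled to the median construct with the unmutated site. It came from sequencing barcodes of gel-selected, reverse-transcribed cleaved RNA and of genomic DNA.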
row,Sequence,cleaved RNA product abundance
1,CGACATGTCCCGCTTCTTTCATTAATTTGTTAGCAACTGTTTTGCTATATACATTTACCTTTTAAGAGGAGGAAT,1.37
2,CGACATGTCCCGCTTCTTTCATTACACCGTTAGCAACTGTTTTGCTATATACATTTACCTTTTAAGAGGAGGAAT,1.39
3,CGACATGTCCCGCTTCTTTCATTACGCCGTTAGCAACTGTTTTGCTATATACATTTACCTTTTAAGAGGAGGAAT,1.03
4,CGACATGTCCCGCTTCTTTCATTACTACCTTAGCAACTGTTTTGCTATATACATTTACCTTTTAAGAGGAGGAAT,0.4
5,CGACATGTCCCGCTTCTTTCATTACTACGTTAGCAACTGTTTTGCTATATACATTTACCTTTTAAGAGGAGGAAT,2.07
6,CGACATGTCCCGCTTCTTTCATTACTACGTTAGCAACTGTTTTGCTATATATATTTACCTTTTAAGAGGAGGAAT,1.18
7,CGACATGTCCCGCTTCTTTCATTACTCAGTTAGCAACTGTTTTGCTATATACATTTACCTTTTAAGAGGAGGAAT,1.1
8,CGACATGTCCCGCTTCTTTCATTACTCCATTAGCAACTGTTTTGCTATATACATTTACCATTTAAGAGGAGGAAT,1.11
9,CGACATGTCCCGCTTCTTTCATTACTCCATTAGCAACTGTTTTGCTATATACATTTACCTTTTAAGAGGAGGAAT,1.18
10,CGACATGTCCCGCTTCTTTCATTACTCCCCTAGCAACTGTTTGGCTATATATATTTACCTTTTAAGAGGAGGAAT,0.221
11,CGACATGTCCCGCTTCTTTCATTACTCCCTTAGCAACTGTTTTGCTATATACATTTACCTTTTAAGAGGAGGAAT,0.223
12,CGACATGTCCCGCTTCTTTCATTACTCCGTCAGCAACTGTTTTGCTATATACATTTACCTTTTAAGAGGAGGAAT,0.381
13,CGACATGTCCCGCTTCTTTCATTACTCCGTTAACAACTGTTTTGCTATATACATTTACCTTTTAAGAGGAGGAAT,0.261
14,CGACATGTCCCGCTTCTTTCATTACTCCGTTACCAACTGTTTTGCTATATACATTTACCTTTTAAGAGGAGGAAT,0.176
15,CGACATGTCCCGCTTCTTTCATTACTCCGTTAGAAACTGTTTTGCTATATACATTTACCTTTTAAGAGGAGGAAT,0.478
16,CGACATGTCCCGCTTCTTTCATTACTCCGTTAGCAAATGTTTTGCTATATACATTTACCTTTTAAGAGGAGGAAT,1.14
17,CGACATGTCCCGCTTCTTTCATTACTCCGTTAGCAACAGTTATGCTATATACATTTACCTTTTAAGAGGAGGAAT,0.735
18,CGACATGTCCCGCTTCTTTCATTACTCCGTTAGCAACAGTTTTGCTATATACATTTACCTTTTAAGAGGAGGAAT,0.834
19,CGACATGTCCCGCTTCTTTCATTACTCCGTTAGCAACTATTTTGCTATATACATTTACCTTTTAAGAGGAGGAAT,1.31
20,CGACATGTCCCGCTTCTTTCATTACTCCGTTAGCAACTCTTTTGCTATATACATTTACCTTTTAAGAGGAGGAAT,1.33
21,CGACATGTCCCGCTTCTTTCATTACTCCGTTAGCAACTGCTTTGCTATATACATTTACCTTTTAAGAGGAGGAAT,0.597
22,CGACATGTCCCGCTTCTTTCATTACTCCGTTAGCAACTGTATTGCTATATACATTTACCTTTTAAGAGGAGGAAT,0.89
23,CGACATGTCCCGCTTCTTTCATTACTCCGTTAGCAACTGTCTTGCTATATACATTTACCTTTTAAGAGGAGGAAT,0.946
24,CGACATGTCCCGCTTCTTTCATTACTCCGTTAGCAACTGTGTTGCTATATACATTTACCTTTTAAGAGGAGGAAT,0.327
25,CGACATGTCCCGCTTCTTTCATTACTCCGTTAGCAACTGTTATGCTATATACATTTACCTTTTAAGAGGAGGAAT,0.602

row,Sequence,cleaved RNA product abundance
1,CGACATGTCCCGCTTCTTTCATTACTCCGTTAGCAACTGTTTAGCTATATACATTTACCTTTTAAGAGGAGGAAT,0.694
2,CGACATGTCCCGCTTCTTTCATTACTCCGTTAGCAACTGTTTGGCTATATACATTTACCTTTTAAGAGGAGGAAT,0.644
3,CGACATGTCCCGCTTCTTTCATTACTCCGTTAGCAACTGTTTTACTATATACATTTACCTTTTAAGAGGAGGAAT,0.792
4,CGACATGTCCCGCTTCTTTCATTACTCCGTTAGCAACTGTTTTCCTATATACATTTACCTTTTAAGAGGAGGAAT,0.679
5,CGACATGTCCCGCTTCTTTCATTACTCCGTTAGCAACTGTTTTGATATATACATTTACCTTTTAAGAGGAGGAAT,0.587
6,CGACATGTCCCGCTTCTTTCATTACTCCGTTAGCAACTGTTTTGCAATATACATTTACCTTTTAAGAGGAGGAAT,0.515
7,CGACATGTCCCGCTTCTTTCATTACTCCGTTAGCAACTGTTTTGCCATATACATTTACCTTTTAAGAGGAGGAAT,0.246
8,CGACATGTCCCGCTTCTTTCATTACTCCGTTAGCAACTGTTTTGCGATATACATTTACCTTTTAAGAGGAGGAAT,0.388
9,CGACATGTCCCGCTTCTTTCATTACTCCGTTAGCAACTGTTTTGCTAAATACATTTACCTTTTAAGAGGAGGAAT,1.11
10,CGACATGTCCCGCTTCTTTCATTACTCCGTTAGCAACTGTTTTGCTATAAACATTTACCTTTTAAGAGGAGGAAT,0.608
11,CGACATGTCCCGCTTCTTTCATTACTCCGTTAGCAACTGTTTTGCTATACACATTTACCTTTTAAGAGGAGGAAT,0.423
12,CGACATGTCCCGCTTCTTTCATTACTCCGTTAGCAACTGTTTTGCTATAGACATTTACCTTTTAAGAGGAGGAAT,0.738
13,CGACATGTCCCGCTTCTTTCATTACTCCGTTAGCAACTGTTTTGCTATATAAATTTACCTTTTAAGAGGAGGAAT,0.276
14,CGACATGTCCCGCTTCTTTCATTACTCCGTTAGCAACTGTTTTGCTATATACAATTACCTTTTAAGAGGAGGAAT,1.14
15,CGACATGTCCCGCTTCTTTCATTACTCCGTTAGCAACTGTTTTGCTATATACACTTACCTTTTAAGAGGAGGAAT,0.587
16,CGACATGTCCCGCTTCTTTCATTACTCCGTTAGCAACTGTTTTGCTATATACATATACCTTTTAAGAGGAGGAAT,0.767
17,CGACATGTCCCGCTTCTTTCATTACTCCGTTAGCAACTGTTTTGCTATATACATCTACCTTTTAAGAGGAGGAAT,0.75
18,CGACATGTCCCGCTTCTTTCATTACTCCGTTAGCAACTGTTTTGCTATATACATTAACCTTTTAAGAGGAGGAAT,1.36
19,CGACATGTCCCGCTTCTTTCATTACTCCGTTAGCAACTGTTTTGCTATATACATTCACCTTTTAAGAGGAGGAAT,0.658
20,CGACATGTCCCGCTTCTTTCATTACTCCGTTAGCAACTGTTTTGCTATATACATTGACCTTTTAAGAGGAGGAAT,1.16
21,CGACATGTCCCGCTTCTTTCATTACTCCGTTAGCAACTGTTTTGCTATATACATTTACATTTTAAGAGGAGGAAT,1.39
22,CGACATGTCCCGCTTCTTTCATTACTCCGTTAGCAACTGTTTTGCTATATACATTTACCATTTAAGAGGAGGAAT,1.3
23,CGACATGTCCCGCTTCTTTCATTACTCCGTTAGCAACTGTTTTGCTATATACATTTACCGTTTAAGAGGAGGAAT,1.01
24,CGACATGTCCCGCTTCTTTCATTACTCCGTTAGCAACTGTTTTGCTATATACATTTACCTTTTAAGAGGAGGAAT,1.1
25,CGACATGTCCCGCTTCTTTCATTACTCCGTTAGCAACTGTTTTGCTATATACATTTACGTTTTAAGAGGAGGAAT,0.893
